Source: US10087225B2, “Formulation of MK2 inhibitor peptides” (MOERAE MATRIX, INC., priority 2015, dated 2018)

Experiments:
Experiment in all cases: Kinase Profiling Assay
Assay type in all cases: biochemical
Conditions in all cases: for % activity: 100 μM
GRK6(h) = GRK6(h) (Homo sapiens, UniProt P43250)
EGFR(L861Q)(h) = EGFR(L861Q)(h) (Homo sapiens, UniProt P00533, L861Q)
ZAP-70(h) = molecular target: T1, ZAP-70(h) (Homo sapiens, UniProt P43403)
T1 sequence (P43403 1-619): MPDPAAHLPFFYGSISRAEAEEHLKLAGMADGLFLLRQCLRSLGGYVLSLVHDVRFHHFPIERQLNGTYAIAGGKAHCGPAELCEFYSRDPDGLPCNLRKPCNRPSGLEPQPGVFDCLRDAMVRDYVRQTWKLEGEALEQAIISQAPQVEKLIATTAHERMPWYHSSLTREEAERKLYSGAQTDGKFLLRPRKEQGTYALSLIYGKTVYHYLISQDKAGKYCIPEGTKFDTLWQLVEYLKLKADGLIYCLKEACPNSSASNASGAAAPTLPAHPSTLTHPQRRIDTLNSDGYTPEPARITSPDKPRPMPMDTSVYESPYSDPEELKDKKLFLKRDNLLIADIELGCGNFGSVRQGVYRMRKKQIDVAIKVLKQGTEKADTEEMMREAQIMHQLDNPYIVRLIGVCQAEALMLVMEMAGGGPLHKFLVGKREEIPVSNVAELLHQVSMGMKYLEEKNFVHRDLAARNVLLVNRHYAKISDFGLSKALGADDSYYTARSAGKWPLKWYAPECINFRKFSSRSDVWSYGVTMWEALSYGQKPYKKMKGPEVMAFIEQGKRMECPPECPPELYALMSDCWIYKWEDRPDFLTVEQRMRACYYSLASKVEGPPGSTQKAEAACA

PKCζ(h) = molecular target: T2, PKCζ(h) (Homo sapiens, UniProt Q05513)
T2 sequence (Q05513 1-592): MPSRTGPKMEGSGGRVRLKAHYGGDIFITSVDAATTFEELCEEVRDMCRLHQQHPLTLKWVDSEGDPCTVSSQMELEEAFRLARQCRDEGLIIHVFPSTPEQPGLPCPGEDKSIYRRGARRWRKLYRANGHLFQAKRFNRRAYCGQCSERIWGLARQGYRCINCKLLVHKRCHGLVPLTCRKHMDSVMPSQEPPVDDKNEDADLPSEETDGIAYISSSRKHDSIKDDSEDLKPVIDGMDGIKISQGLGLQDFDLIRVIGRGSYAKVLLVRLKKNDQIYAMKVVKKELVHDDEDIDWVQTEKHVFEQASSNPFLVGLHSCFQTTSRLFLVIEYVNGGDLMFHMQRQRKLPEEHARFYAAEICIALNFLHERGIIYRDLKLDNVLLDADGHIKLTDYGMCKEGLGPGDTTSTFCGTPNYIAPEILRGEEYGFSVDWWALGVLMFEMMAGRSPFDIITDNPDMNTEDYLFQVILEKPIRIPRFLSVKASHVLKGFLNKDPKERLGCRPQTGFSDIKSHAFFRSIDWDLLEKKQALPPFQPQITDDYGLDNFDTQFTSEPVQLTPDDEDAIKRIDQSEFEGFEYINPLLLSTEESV

cKit(h) = cKit(h) (Homo sapiens, UniProt P10721)
Ab1(T315I)(h) = Ab1(T315I)(h) (Homo sapiens, UniProt P00519, T315I)
WNK2(h) = WNK2(h) (Homo sapiens, UniProt Q9Y3S1)
Sequence of WNK2(h) (Q9Y3S1 whole entry): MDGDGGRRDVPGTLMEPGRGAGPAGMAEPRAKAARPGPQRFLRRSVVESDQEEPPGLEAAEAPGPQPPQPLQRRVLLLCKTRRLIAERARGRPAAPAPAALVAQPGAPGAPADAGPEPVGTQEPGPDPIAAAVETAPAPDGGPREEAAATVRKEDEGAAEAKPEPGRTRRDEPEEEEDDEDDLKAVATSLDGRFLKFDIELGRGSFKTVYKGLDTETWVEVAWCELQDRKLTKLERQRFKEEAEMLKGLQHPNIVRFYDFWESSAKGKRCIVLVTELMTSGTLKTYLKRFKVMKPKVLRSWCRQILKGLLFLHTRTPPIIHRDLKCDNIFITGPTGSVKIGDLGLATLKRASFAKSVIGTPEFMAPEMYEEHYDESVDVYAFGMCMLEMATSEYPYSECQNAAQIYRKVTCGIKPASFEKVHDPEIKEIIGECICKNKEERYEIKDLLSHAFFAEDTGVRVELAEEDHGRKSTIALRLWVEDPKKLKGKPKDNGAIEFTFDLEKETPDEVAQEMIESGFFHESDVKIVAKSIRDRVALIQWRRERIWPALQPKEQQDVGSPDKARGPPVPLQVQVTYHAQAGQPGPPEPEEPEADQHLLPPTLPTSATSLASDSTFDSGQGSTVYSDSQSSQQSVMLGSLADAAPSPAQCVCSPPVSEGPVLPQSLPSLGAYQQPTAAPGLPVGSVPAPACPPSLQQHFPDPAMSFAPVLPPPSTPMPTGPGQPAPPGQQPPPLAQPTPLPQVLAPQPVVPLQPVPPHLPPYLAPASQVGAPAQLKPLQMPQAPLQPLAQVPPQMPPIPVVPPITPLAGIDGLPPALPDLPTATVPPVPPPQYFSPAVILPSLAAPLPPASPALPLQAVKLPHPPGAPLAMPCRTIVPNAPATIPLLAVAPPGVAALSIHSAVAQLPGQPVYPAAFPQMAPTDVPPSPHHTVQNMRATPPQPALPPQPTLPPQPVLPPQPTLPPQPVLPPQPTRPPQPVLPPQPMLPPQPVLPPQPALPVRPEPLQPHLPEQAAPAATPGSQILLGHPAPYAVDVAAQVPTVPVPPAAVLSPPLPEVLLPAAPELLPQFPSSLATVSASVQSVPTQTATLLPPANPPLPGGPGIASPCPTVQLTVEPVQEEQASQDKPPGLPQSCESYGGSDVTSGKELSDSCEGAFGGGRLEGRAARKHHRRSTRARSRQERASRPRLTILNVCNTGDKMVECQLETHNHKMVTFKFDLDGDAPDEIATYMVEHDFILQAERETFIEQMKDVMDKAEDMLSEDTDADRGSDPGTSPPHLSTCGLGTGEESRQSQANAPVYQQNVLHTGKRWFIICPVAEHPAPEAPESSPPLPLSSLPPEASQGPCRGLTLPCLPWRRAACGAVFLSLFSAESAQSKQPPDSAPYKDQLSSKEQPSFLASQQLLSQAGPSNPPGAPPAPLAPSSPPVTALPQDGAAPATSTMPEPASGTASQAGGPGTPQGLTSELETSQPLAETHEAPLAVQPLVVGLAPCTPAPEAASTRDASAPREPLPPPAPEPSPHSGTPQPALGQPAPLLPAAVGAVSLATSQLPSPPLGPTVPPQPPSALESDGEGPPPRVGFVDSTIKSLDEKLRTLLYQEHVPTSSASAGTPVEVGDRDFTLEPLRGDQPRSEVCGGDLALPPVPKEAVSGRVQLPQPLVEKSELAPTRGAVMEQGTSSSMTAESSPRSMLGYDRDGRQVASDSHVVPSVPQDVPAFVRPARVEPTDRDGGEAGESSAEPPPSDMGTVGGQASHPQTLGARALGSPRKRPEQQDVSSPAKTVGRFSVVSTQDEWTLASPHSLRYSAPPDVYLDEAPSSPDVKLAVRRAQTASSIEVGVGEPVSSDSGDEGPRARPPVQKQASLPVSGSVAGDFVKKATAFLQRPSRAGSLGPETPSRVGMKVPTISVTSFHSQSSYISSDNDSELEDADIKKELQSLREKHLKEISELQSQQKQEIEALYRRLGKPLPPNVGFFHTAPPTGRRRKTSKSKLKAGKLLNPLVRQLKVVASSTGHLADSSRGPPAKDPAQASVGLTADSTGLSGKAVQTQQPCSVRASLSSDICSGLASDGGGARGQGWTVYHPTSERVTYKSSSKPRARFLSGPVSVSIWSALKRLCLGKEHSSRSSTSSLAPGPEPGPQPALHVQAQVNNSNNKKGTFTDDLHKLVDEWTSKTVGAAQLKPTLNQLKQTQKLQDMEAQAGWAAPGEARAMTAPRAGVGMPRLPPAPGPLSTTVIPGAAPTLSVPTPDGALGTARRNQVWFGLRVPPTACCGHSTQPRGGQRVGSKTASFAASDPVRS

DCAMKL2(h) = molecular target: T3, DCAMKL2(h) (Homo sapiens, UniProt Q8N568)
T3 sequence (Q8N568 1-766): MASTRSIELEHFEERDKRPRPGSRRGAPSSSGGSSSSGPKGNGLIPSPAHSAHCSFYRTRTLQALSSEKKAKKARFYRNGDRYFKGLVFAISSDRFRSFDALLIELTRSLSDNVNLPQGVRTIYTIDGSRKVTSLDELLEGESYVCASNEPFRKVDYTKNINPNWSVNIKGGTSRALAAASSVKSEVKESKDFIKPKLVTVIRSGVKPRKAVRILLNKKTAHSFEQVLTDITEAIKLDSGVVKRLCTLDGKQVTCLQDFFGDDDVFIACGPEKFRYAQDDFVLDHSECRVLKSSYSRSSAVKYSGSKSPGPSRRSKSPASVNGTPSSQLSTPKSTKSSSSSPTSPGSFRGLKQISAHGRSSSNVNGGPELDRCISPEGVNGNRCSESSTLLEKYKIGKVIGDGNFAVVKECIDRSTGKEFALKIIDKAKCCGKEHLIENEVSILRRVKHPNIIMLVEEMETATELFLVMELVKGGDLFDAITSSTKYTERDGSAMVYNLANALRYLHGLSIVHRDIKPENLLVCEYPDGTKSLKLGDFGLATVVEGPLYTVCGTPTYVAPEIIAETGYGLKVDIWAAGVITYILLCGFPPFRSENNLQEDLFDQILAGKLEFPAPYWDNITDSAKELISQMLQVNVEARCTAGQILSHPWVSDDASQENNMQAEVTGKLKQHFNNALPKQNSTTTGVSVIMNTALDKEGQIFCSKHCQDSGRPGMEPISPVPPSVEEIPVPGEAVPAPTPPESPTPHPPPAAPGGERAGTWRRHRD

Met(Y1248H)(h) = Met(Y1248H)(h) (Homo sapiens, UniProt P08581, Y1230H)
CHK2(R145W)(h) = CHK2(R145W)(h) (Homo sapiens, UniProt O96017, R145W)
Sequence of CHK2(R145W)(h) (O96017 whole entry R145W): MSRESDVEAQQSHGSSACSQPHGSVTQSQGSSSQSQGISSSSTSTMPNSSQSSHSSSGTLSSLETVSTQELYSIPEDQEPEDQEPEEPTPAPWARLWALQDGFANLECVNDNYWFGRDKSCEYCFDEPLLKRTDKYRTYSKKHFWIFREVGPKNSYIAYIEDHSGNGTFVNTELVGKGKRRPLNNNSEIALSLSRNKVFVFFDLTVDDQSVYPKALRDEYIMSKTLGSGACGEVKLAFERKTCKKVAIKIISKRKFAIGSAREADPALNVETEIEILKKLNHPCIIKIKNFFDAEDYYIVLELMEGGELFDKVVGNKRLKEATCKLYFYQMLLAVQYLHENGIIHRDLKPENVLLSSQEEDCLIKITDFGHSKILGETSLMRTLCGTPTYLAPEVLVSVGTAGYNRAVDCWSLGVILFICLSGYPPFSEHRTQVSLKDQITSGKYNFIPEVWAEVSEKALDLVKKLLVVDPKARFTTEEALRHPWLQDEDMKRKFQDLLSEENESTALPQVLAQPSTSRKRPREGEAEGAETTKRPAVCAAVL

PASK(h) = PASK(h) (Homo sapiens, UniProt Q96RG2)
Sequence of PASK(h) (Q96RG2 whole entry): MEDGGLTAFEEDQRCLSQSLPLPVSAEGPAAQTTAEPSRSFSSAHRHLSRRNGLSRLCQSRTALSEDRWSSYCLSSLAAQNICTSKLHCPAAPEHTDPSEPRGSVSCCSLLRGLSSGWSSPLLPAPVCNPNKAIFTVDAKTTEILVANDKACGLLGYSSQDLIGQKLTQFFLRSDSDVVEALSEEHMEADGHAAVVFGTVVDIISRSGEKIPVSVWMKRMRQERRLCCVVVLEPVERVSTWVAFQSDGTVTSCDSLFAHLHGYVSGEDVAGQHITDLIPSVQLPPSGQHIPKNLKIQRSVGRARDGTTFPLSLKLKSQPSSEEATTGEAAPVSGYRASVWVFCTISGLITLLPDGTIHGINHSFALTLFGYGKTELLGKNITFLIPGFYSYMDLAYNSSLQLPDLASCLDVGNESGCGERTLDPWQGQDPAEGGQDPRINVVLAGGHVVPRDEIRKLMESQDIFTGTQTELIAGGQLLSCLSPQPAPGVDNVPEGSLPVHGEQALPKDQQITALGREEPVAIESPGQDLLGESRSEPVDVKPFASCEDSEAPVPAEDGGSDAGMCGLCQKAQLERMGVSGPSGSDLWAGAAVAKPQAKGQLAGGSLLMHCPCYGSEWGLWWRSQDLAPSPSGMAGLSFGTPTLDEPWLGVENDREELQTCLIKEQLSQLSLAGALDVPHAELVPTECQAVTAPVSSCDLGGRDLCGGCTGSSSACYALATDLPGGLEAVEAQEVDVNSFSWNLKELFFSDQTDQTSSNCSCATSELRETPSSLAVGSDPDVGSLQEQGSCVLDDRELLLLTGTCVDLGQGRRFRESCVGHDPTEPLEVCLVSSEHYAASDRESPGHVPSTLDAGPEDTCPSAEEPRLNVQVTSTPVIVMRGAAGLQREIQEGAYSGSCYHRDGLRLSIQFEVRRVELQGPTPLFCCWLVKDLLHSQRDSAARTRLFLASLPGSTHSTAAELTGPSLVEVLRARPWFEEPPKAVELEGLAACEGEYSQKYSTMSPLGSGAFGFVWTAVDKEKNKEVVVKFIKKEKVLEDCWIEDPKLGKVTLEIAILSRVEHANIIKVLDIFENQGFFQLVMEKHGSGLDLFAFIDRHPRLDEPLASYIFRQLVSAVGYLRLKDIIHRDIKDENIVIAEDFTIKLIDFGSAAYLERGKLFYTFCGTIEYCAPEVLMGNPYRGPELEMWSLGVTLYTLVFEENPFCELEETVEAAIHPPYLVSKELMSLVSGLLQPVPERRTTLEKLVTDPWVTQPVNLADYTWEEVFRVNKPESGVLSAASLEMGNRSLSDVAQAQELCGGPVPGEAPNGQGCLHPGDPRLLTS

Sequence of GRK6(h) (P43250 whole entry): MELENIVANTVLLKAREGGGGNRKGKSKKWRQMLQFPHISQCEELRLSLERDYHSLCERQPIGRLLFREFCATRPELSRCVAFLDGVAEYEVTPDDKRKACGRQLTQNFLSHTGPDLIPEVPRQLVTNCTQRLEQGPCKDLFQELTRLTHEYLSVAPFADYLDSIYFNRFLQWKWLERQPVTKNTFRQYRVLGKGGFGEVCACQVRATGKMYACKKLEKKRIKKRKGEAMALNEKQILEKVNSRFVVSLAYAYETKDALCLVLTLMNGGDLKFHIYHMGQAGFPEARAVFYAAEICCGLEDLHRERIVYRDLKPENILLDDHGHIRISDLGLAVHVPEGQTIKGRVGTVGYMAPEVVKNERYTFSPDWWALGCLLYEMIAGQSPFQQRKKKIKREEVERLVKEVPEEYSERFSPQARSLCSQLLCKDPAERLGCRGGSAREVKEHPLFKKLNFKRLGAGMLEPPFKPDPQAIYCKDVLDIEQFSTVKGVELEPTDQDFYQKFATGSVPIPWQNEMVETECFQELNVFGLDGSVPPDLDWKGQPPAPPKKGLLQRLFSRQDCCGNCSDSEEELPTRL

Row | Substance | % activity (GRK6(h)) [%] | % activity (EGFR(L861Q)(h)) [%] | % activity (ZAP-70(h)) [%] | % activity (PKCζ(h)) [%] | % activity (cKit(h)) [%] | % activity (Ab1(T315I)(h)) [%] | % activity (WNK2(h)) [%] | % activity (DCAMKL2(h)) [%] | % activity (Met(Y1248H)(h)) [%] | % activity (CHK2(R145W)(h)) [%] | % activity (PASK(h)) [%] | also measured
1 | YARAAARQARAKALNRQLGVA (Mammalian) [MMI-0200] | 132 | 74 | 58 | 98 | 110 | 108 | 94 | 131 | 153 | 81 | 60 | –
2 | H-YARAAARQARAKALARQLGVAA-OH [MMI-0100] | – | – | – | – | – | – | – | – | – | – | – | activity at 100 µM (GRK6(h)): 131%; activity at 100 µM (EGFR(L861Q)(h)): 53%; activity at 100 µM (ZAP-70(h)): 79%; activity at 100 µM (PKCζ(h)): 82%; activity at 100 µM (cKit(h)): 95%; activity at 100 µM (Ab1(T315I)(h)): 98%; activity at 100 µM (WNK2(h)): 95%; activity at 100 µM (DCAMKL2(h)): 146%; activity at 100 µM (Met(Y1248H)(h)): 88%; activity at 100 µM (CHK2(R145W)(h)): 97%; activity at 100 µM (PASK(h)): 81%
3 | HRRIKAWLKKIKALARQLGVAA (Mammalian) [MMI-0500] | 174 | 15 | 1 | 7 | 45 | 16 | 8 | 56 | 126 | 3 | 9 | –
